First the molecules themselves.
B1: glmS ribozyme (parent)
chain: AUAAAAGCGCCAGAACUACAGAAAUGUAGUUGACGAGGAGGAGGUUUAUCGAAUUUUCGGCGGAUGCCUCCAAA

Conditions in all cases: with glucosamine-6-phosphate
Series [1] covers variants of B1. In words: self-cleavage kobs at 40 uM GlcN6P; higher = faster cleavage; RNA array. The procedure, abridged:
(§1)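 Glucosamine-6-phosphate in HEPES/KCl/Mg(OAc)2 buffer, at 40 μM to 10 mM, was flowed over barcoded ribozyme variants transcribed in situ by E. coli RNA polymerase on sequenced MiSeq chips. Tracking was through a hybridised Cy3 probe at 37 °C. kobs, kcat and KM came from exponential decay fits and weighted Michaelis–Menten fits of normalised per-tile medians.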

In series [2] the parent is B1. In words: self-cleavage kobs at 160 uM GlcN6P; higher = faster cleavage; RNA array. An outline of the steps: as §1
The variants in series [3] derive from B1. The experiment in a line: self-cleavage kobs at 640 uM GlcN6P; higher = faster cleavage; RNA array. An outline of the steps: as §1
Series [4] covers variants of B1. The experiment in a line: self-cleavage kobs at 2500 uM GlcN6P; higher = faster cleavage; RNA array. An outline of the steps: as §1
Variants of B1 are the subject of series [5]. In words: self-cleavage kobs at 10000 uM GlcN6P; higher = faster cleavage; RNA array. An outline of the steps: as §1

± gives the standard error. Fewer inactive variants are shown than the library holds.

Turning to C58A G63U, the “self-cleavage kobs at 40 uM GlcN6P” value in the series with glucosamine-6-phosphate [1] was below 1e-05 s⁻¹. In addition, the “self-cleavage kobs at 160 uM GlcN6P” value with glucosamine-6-phosphate [2] is below 1e-05 s⁻¹. For the same variant, the “self-cleavage kobs at 640 uM GlcN6P” value in the series with glucosamine-6-phosphate [3] is below 1e-05 s⁻¹. For the same variant, the “self-cleavage kobs at 2500 uM GlcN6P” value in the series with glucosamine-6-phosphate [4] was below 1e-05 s⁻¹.

On to A14U C61A, for which the “self-cleavage kobs at 40 uM GlcN6P” value with glucosamine-6-phosphate [1] is below 1e-05 s⁻¹. Also, in the series with glucosamine-6-phosphate [5], the “self-cleavage kobs at 10000 uM GlcN6P” value is below 1e-05 s⁻¹.

As to C10U U31C G32C U49A G51U G60C, the “self-cleavage kobs at 40 uM GlcN6P” value with glucosamine-6-phosphate [1] is below 1e-05 s⁻¹.

Consider G63C U65C, for which the “self-cleavage kobs at 40 uM GlcN6P” value with glucosamine-6-phosphate [1] was below 1e-05 s⁻¹. Moreover, the “self-cleavage kobs at 10000 uM GlcN6P” value with glucosamine-6-phosphate [5] is below 1e-05 s⁻¹.

Consider G44U C50U A53C, for which the “self-cleavage kobs at 40 uM GlcN6P” value with glucosamine-6-phosphate [1] was below 1e-05 s⁻¹. Moreover, in the series with glucosamine-6-phosphate [3], the “self-cleavage kobs at 640 uM GlcN6P” value was below 1e-05 s⁻¹. Also, the “self-cleavage kobs at 2500 uM GlcN6P” value with glucosamine-6-phosphate [4] was below 1e-05 s⁻¹.

In the case of U55G U56A, the “self-cleavage kobs at 40 uM GlcN6P” value with glucosamine-6-phosphate [1] was 0.000287 ± 6.6e-05 s⁻¹. Also, the “self-cleavage kobs at 640 uM GlcN6P” value with glucosamine-6-phosphate [3] was found to be 0.00208 ± 0.00047 s⁻¹. The “self-cleavage kobs at 2500 uM GlcN6P” value in the series with glucosamine-6-phosphate [4] was 0.00834 ± 0.0016 s⁻¹. In the series with glucosamine-6-phosphate [5], the “self-cleavage kobs at 10000 uM GlcN6P” value is 0.0131 ± 0.0051 s⁻¹.

On to G32A G40U A42U G44C C67G, for which, in the series with glucosamine-6-phosphate [1], the “self-cleavage kobs at 40 uM GlcN6P” value is below 1e-05 s⁻¹. The “self-cleavage kobs at 10000 uM GlcN6P” value in the series with glucosamine-6-phosphate [5] is below 1e-05 s⁻¹.

For the variant A64U C71A, in the series with glucosamine-6-phosphate [1], the “self-cleavage kobs at 40 uM GlcN6P” value was below 1e-05 s⁻¹. Besides, in the series with glucosamine-6-phosphate [5], the “self-cleavage kobs at 10000 uM GlcN6P” value was 3.22e-05 ± 1.4e-05 s⁻¹.

For C8A A33U G40A A64G C68A, the “self-cleavage kobs at 40 uM GlcN6P” value with glucosamine-6-phosphate [1] was below 1e-05 s⁻¹. For the same variant, the “self-cleavage kobs at 640 uM GlcN6P” value with glucosamine-6-phosphate [3] was below 1e-05 s⁻¹. Further, the “self-cleavage kobs at 2500 uM GlcN6P” value with glucosamine-6-phosphate [4] was below 1e-05 s⁻¹. Also, in the series with glucosamine-6-phosphate [5], the “self-cleavage kobs at 10000 uM GlcN6P” value was below 1e-05 s⁻¹.

With A15G U30A U31G G41U, the “self-cleavage kobs at 40 uM GlcN6P” value with glucosamine-6-phosphate [1] came out at 0.00015 ± 5.1e-05 s⁻¹. Besides, in the series with glucosamine-6-phosphate [5], the “self-cleavage kobs at 10000 uM GlcN6P” value is 0.000456 ± 0.00017 s⁻¹.

Turning to C11A G35C, the “self-cleavage kobs at 40 uM GlcN6P” value with glucosamine-6-phosphate [1] was below 1e-05 s⁻¹. The “self-cleavage kobs at 160 uM GlcN6P” value with glucosamine-6-phosphate [2] is below 1e-05 s⁻¹. The “self-cleavage kobs at 640 uM GlcN6P” value with glucosamine-6-phosphate [3] is below 1e-05 s⁻¹. Further, the “self-cleavage kobs at 2500 uM GlcN6P” value with glucosamine-6-phosphate [4] was below 1e-05 s⁻¹.

As to G9A A52U U65G, in the series with glucosamine-6-phosphate [1], the “self-cleavage kobs at 40 uM GlcN6P” value is below 1e-05 s⁻¹.

On to G40C C67G C71U, for which, in the series with glucosamine-6-phosphate [1], the “self-cleavage kobs at 40 uM GlcN6P” value was below 1e-05 s⁻¹.

Turning to A6C G7C A42C C71U, the “self-cleavage kobs at 40 uM GlcN6P” value with glucosamine-6-phosphate [1] was below 1e-05 s⁻¹. The “self-cleavage kobs at 10000 uM GlcN6P” value with glucosamine-6-phosphate [5] is below 1e-05 s⁻¹.

In the case of G40C G59U C68A C71A, the “self-cleavage kobs at 40 uM GlcN6P” value in the series with glucosamine-6-phosphate [1] is below 1e-05 s⁻¹.

Take C10A G13C: the “self-cleavage kobs at 40 uM GlcN6P” value in the series with glucosamine-6-phosphate [1] was below 1e-05 s⁻¹. For the same variant, in the series with glucosamine-6-phosphate [2], the “self-cleavage kobs at 160 uM GlcN6P” value is below 1e-05 s⁻¹. In the series with glucosamine-6-phosphate [4], the “self-cleavage kobs at 2500 uM GlcN6P” value is below 1e-05 s⁻¹. The “self-cleavage kobs at 10000 uM GlcN6P” value with glucosamine-6-phosphate [5] is below 1e-05 s⁻¹.

For U46C U47C C58G, in the series with glucosamine-6-phosphate [1], the “self-cleavage kobs at 40 uM GlcN6P” value was below 1e-05 s⁻¹. Also, the “self-cleavage kobs at 640 uM GlcN6P” value with glucosamine-6-phosphate [3] is below 1e-05 s⁻¹.

Take A36U A48U G51U U65G: the “self-cleavage kobs at 40 uM GlcN6P” value in the series with glucosamine-6-phosphate [1] was below 1e-05 s⁻¹.

On to A42C U46G, for which the “self-cleavage kobs at 40 uM GlcN6P” value in the series with glucosamine-6-phosphate [1] was below 1e-05 s⁻¹. Moreover, the “self-cleavage kobs at 160 uM GlcN6P” value with glucosamine-6-phosphate [2] was below 1e-05 s⁻¹.

A14G G29A: the “self-cleavage kobs at 40 uM GlcN6P” value with glucosamine-6-phosphate [1] was 0.000403 ± 6.2e-05 s⁻¹. Further, the “self-cleavage kobs at 640 uM GlcN6P” value with glucosamine-6-phosphate [3] is 0.00394 ± 0.00079 s⁻¹. The “self-cleavage kobs at 2500 uM GlcN6P” value with glucosamine-6-phosphate [4] was 0.00353 ± 0.00081 s⁻¹. Further, the “self-cleavage kobs at 10000 uM GlcN6P” value with glucosamine-6-phosphate [5] is 0.0317 ± 0.0076 s⁻¹.

Consider A15C A39G U56G, for which, in the series with glucosamine-6-phosphate [1], the “self-cleavage kobs at 40 uM GlcN6P” value amounted to 4.71e-05 ± 1.6e-05 s⁻¹. The “self-cleavage kobs at 10000 uM GlcN6P” value with glucosamine-6-phosphate [5] was found to be 0.00218 ± 0.00029 s⁻¹.

On to G41A U49C C67U, for which the “self-cleavage kobs at 40 uM GlcN6P” value with glucosamine-6-phosphate [1] is below 1e-05 s⁻¹.

Regarding C34G U55C, the “self-cleavage kobs at 40 uM GlcN6P” value in the series with glucosamine-6-phosphate [1] was below 1e-05 s⁻¹. For the same variant, in the series with glucosamine-6-phosphate [2], the “self-cleavage kobs at 160 uM GlcN6P” value was below 1e-05 s⁻¹. Also, in the series with glucosamine-6-phosphate [3], the “self-cleavage kobs at 640 uM GlcN6P” value is below 1e-05 s⁻¹. Moreover, the “self-cleavage kobs at 2500 uM GlcN6P” value in the series with glucosamine-6-phosphate [4] was below 1e-05 s⁻¹. For the same variant, the “self-cleavage kobs at 10000 uM GlcN6P” value with glucosamine-6-phosphate [5] was below 1e-05 s⁻¹.

For the variant G59A G62C, the “self-cleavage kobs at 40 uM GlcN6P” value with glucosamine-6-phosphate [1] was below 1e-05 s⁻¹. The “self-cleavage kobs at 160 uM GlcN6P” value in the series with glucosamine-6-phosphate [2] was below 1e-05 s⁻¹. In addition, the “self-cleavage kobs at 640 uM GlcN6P” value in the series with glucosamine-6-phosphate [3] is below 1e-05 s⁻¹. For the same variant, the “self-cleavage kobs at 2500 uM GlcN6P” value with glucosamine-6-phosphate [4] was below 1e-05 s⁻¹. In addition, the “self-cleavage kobs at 10000 uM GlcN6P” value in the series with glucosamine-6-phosphate [5] was below 1e-05 s⁻¹.

Turning to C10G A33U G35U G60U, the “self-cleavage kobs at 40 uM GlcN6P” value with glucosamine-6-phosphate [1] was below 1e-05 s⁻¹. The “self-cleavage kobs at 10000 uM GlcN6P” value in the series with glucosamine-6-phosphate [5] is below 1e-05 s⁻¹.

Take G9C A39C G44C: in the series with glucosamine-6-phosphate [1], the “self-cleavage kobs at 40 uM GlcN6P” value is below 1e-05 s⁻¹.

With A15G G32C G41A C70A, the “self-cleavage kobs at 40 uM GlcN6P” value with glucosamine-6-phosphate [1] was below 1e-05 s⁻¹.

Consider A48G A52G C58U, for which the “self-cleavage kobs at 40 uM GlcN6P” value with glucosamine-6-phosphate [1] was below 1e-05 s⁻¹.

The values are drawn from the supplement of paper PMC7125110.
